The results in this text go back to patent US20140087991A1, “PEPTIDE PRODRUGS” (The Johns Hopkins University, priority 2006, published 2014).

The experiment has as its target T1, FAP (Homo sapiens, UniProt Q12884).
T1 construct: the extracellular domain of FAP was cloned with a His-6 tag; made in house
T1 sequence (Q12884 26-760 limits assumed): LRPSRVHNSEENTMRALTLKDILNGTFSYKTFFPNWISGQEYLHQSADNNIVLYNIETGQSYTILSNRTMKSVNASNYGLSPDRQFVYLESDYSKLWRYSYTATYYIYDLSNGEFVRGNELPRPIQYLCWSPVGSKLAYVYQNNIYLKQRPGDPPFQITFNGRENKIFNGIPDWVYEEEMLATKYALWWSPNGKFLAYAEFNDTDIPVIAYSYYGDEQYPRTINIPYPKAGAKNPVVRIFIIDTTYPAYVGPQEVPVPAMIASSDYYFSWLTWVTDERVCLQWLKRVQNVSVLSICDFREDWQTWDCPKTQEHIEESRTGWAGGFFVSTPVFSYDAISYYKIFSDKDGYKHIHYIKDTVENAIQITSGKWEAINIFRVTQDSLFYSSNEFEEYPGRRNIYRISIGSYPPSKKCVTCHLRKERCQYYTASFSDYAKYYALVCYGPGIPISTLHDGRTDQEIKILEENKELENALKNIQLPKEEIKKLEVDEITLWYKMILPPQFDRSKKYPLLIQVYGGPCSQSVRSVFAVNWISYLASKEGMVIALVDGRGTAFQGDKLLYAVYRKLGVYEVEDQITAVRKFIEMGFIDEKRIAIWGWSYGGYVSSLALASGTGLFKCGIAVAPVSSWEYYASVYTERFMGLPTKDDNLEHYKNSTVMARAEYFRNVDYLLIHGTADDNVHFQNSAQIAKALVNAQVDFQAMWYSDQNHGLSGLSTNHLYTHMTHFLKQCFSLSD
The experiment in a line: LC-MS/MS cleavage map of FAP digest of 100 kDa recombinant human gelatin. It counts as biochemical. The note with it: 100 kDa gelatin digest; for Percentage: share of all occurrences. As for the experimental part:
Human collagen I (Becton Dickinson, Franklin Lakes, N.J.) and recombinant human gelatins of 100 KDa and 8.5 KDa (Fibrogen, San Francisco, Calif.) were dissolved in reaction buffer to a final concentration of 100-300 μg/ml. 0.5-1 μg of FAP was added per 100 μgs of protein substrate. Digestion was done for 4-6 hrs at 37° C. As a positive control trypsin digestion was used. As a negative control, protein solutions were incubated either with BSA or buffer only. Peptide fragments of a size <30 KDa were purified using 30 KDa Microcon spin filter (Millipore, Billerica, Mass.).
Peptides obtained from FAP/gelatin digests were dried using a speedvac (Eppendorf), resuspended in LC/MS loading buffer (3% ACN, 0.1% formic acid), and analyzed using nano-flow LC/MS/MS on an Agilent 1100 series nano-LC system (Agilent) coupled to an LCQ Duo ion trap mass spectrometer (ThermoFinnigan). Peptides were pre-concentrated on a 5 mm Zorbax C18 trap column (Agilent) and then eluted onto a 100×0.075 mm custom-packed Biobasic C18 (ThermoElectron) reversed phase capillary column connected to a laser-pulled electrospray ionization emitter tip (New Objective) at a flowrate of 300 nl/min Peptides were eluted the nanospray source of the LCQ (Proxeon, Denmark) using the following gradient: 0% B at 0 min, 5% B at 8 min, 45% B at 50 min, 90% B at 55 min, 90% B at 60 min (B=0.1% formic acid in acetonitrile) at a spray voltage of 2.5 kV. The LCQ was operated in data-dependent mode using the Xcalibur software (ThermoFinnigan) in which every MS scan (400-1800 m/z) was followed by MS/MS scans (400-1800 m/z) on the 3 most intense ions using an isolation window of ±1.5 Da. Ions selected for MS/MS fragmentation were dynamically excluded for 30 s.
MS/MS data were searched against a collagen FASTA database using the SEQUEST search algorithm built into the Bioworks Browser (ThermoFinnigan) allowing for the variable modification of Methionine oxidation. Peptides were initially filtered in a charge dependent manner using an XCorr filter of 1.5, 2, and 2.5 for singly, doubly, and triply charged peptides. All MS/MS spectra used to identify peptides were manually inspected for validation of y and b-ion series. To quantify the relative abundance of each identified peptide we compared the ion current for each of the observed peptide parent ions from the MS spectra. The contribution of each parent ion to the total ion current was extracted and integrated over the peptide elution peak.
To resolve each particular mass fragment a Liquid Chromatograpy (LC) and Tandem mass spectroscopy (MS-MS) [LC-MS-MS] method was developed. Using this method, peptide fragments from FAP digests of the 8.5 kDa and 100 kDa recombinant gelatin were time-resolved by nano reverse phase LC (FIGS. 12 and 14) and then sequenced using an ion trap mass spectrometer operating in MS/MS mode. Initial methodological issues were worked out using the 8.5 kDa fragment before analyzing the entire 100 kDa protein. MS/MS spectra were searched against the 8.5 kDa and 100 kDa gelatin sequences using the SEQUEST algorithm with no cleavage specificity. Most of the identified cleavage sites in both sized gelatins occurred after Proline. However, FAP cleavage sites in these gelatins were not restricted to Proline alone. FAP was also found to cleave after Ala (e.g. A/A, A/G, A/P, A/R), Asp (e.g. D/G, D/T), Gly (e.g. G/A, G/E, G/L, G/Q, G/P, G/V), Glu (i.e., E/P), Lys (i.e., K/A, K/G), Ser (e.g. S/P) and Val (e.g. V/G).
To identify the most preferentially cleaved sites, we relatively quantified the abundance of each of the identified peptides by integrating the ion current generated by each peptide throughout the chromatogram. After identification of a peptide from a MS/MS spectrum, we extracted the ion current for the parent mass of the ion from the total MS ion chromatogram using a 1.5 Da tolerance window, and then integrated under the peak (FIGS. 12 and 14). […]

Regarding “P.PGLAGPPGESGREGAPGAEGSPGRD.G: FAP cleavage fragment, 100 kDa recombinant human gelatin”, the Occurences is 2 and the Percentage amounted to 0.95.
As to “P.PGAPGAPGAPGPVGPAGKSGDRGETGP.A: FAP cleavage fragment, 100 kDa recombinant human gelatin”, the Occurences was 2 and the Percentage is given as 0.95.
Taken in the same sequence, the figures for “E.PGKQGPSGASGERGPPGP.M: FAP cleavage fragment, 100 kDa recombinant human gelatin” were 5 and 2.38.
In the case of “D.GQPGAKGEPGDAGAKGDAGPPGP.A: FAP cleavage fragment, 100 kDa recombinant human gelatin”, the Occurences was found to be 2 and the Percentage is listed as 0.95.
In the case of “P.AGPTGARGAPGDRGEPGPPGP.A: FAP cleavage fragment, 100 kDa recombinant human gelatin”, the Occurences worked out at 6 and the Percentage was 2.86.
Taken in the same sequence, the figures for “A.GPPGAPGAPGAPGP.V: FAP cleavage fragment, 100 kDa recombinant human gelatin” were 1 and 0.48.
As for “P.AGPPGPIGNVGAPGAKGARGSAGPPGATGFPGAAGRVGPPGP.S: FAP cleavage fragment, 100 kDa recombinant human gelatin”, the Occurences is recorded as 3 and the Percentage is given as 1.43.
In the case of “A.PGAPGAPGPVGPAGKSGDRGETGP.A: FAP cleavage fragment, 100 kDa recombinant human gelatin”, the Occurences was 4 and the Percentage amounted to 1.90.
As to “G.PPGPAGAPGDK.G: FAP cleavage fragment, 100 kDa recombinant human gelatin”, the Occurences is listed as 2 and the Percentage stood at 0.95.
For “P.AGPPGAPGAPGAPGPVGPAGKSGDRGETGP.A: FAP cleavage fragment, 100 kDa recombinant human gelatin”, in that order: 6 and 2.86.
For the substance “P.AGPPGFPGAVGAKGEAGP.Q: FAP cleavage fragment, 100 kDa recombinant human gelatin”, the Occurences is 2 and the Percentage is given as 0.95.
For “G.PTGARGAPGDRGEPGPPGP.A: FAP cleavage fragment, 100 kDa recombinant human gelatin”, in that order: 6 and 2.86.
For the substance “P.VGPPGPPGPPGPPGPP.: C-terminal FAP cleavage fragment, 100 kDa recombinant human gelatin (PVGPPGPPGPPGPPGPP)”, the Occurences worked out at 19, the “relative abundance of fragment by integrated ion current” value is on record as “most abundantly identified fragment” and the Percentage was found to be 9.05.
As for “P.AGPPGEAGKPGEQGVPGDLGAPGP.S: FAP cleavage fragment, 100 kDa recombinant human gelatin”, the Occurences came to 6 and the Percentage was determined as 2.86.
In the case of “P.SGNAGPPGPPGP.A: FAP cleavage fragment, 100 kDa recombinant human gelatin”, the Occurences stood at 14 and the Percentage was 6.67.
Take “P.GPPGAPGP.Q: FAP cleavage fragment, 100 kDa recombinant human gelatin”: the Occurences amounted to 1 and the Percentage is given as 0.48.
